Experimental data from publication PMC7498260, “The peroxisome counteracts oxidative stresses by suppressing catalase import via Pex14 phosphorylation” (eLife, 2020).

Target: Pex5L (Chinese hamster, ClPex5L) (Chinese hamster, UniProt Q920N5 1-640)
Test: pull-down; GST-Pex14 variants (2 μg) on glutathione-Sepharose beads incubated with Pex5L (2 μg) together with EGFP-PTS1 (4 μg) or HA-catalase (4 μg), 2 hr at 4°C, 50 mM Tris-HCl pH 7.5, 0.15 M NaCl, 1% Triton X-100, 10% glycerol; bound fraction by immunoblot, quantified and normalised by GST-Pex14
Conditions: both partners purified

B1: HA-catalase (human) (enzyme)
chain: MADSRDPASDQMQHWKEQRAAQKADVLTTGAGNPVGDKLNVITVGPRGPLLVQDVVFTDEMAHFDRERIPERVVHAKGAGAFGYFEVTHDITKYSKAKVFEHIGKKTPIAVRFSTVAGESGSADTVRDPRGFAVKFYTEDGNWDLVGNNTPIFFIRDPILFPSFIHSQKRNPQTHLKDPDMVWDFWSLRPESLHQVSFLFSDRGIPDGHRHMNGYGSHTFKLVNANGEAVYCKFHYKTDQGIKNLSVEDAARLSQEDPDYGIRDLFNAIATGKYPSWTFYIQVMTFNQAETFPFNPFDLTKVWPHKDYPLIPVGKLVLNRNPVNYFAEVEQIAFDPSNMPPGIEASPDKMLQGRLFAYPDTHRHRLGPNYLHIPVNCPYRARVANYQRDGPMCMQDNQGGAPNYYPNSFGAPEQQPSALEHSIQYSGEVRRFNTANDDNVTQVRAFYVNVLNEEQRKRLCENIAGHLKDAQIFIQKKAVKNFTEVHPDYGSHIQALLDKYNAEKPKNAIHTFVQSGSHLAAREKANL
notes: catalase, human (HsCatalase); HA-Catalase amplified from pUcD3/HA-HsCatalase (Otera and Fujiki, 2012) and cloned into pGEX6P-1; The forward primer GST-HA-HsCatalase.BglFw starts with ATG GCT TAT CCA TAC GAC, i.e. the HA tag lies at the N-terminus of catalase; also called HA-HsCatalase; source: E. coli DH5α, GST fusion purified with glutathione-Sepharose beads, isolated by cleaving …
binding result: binds
